These results are taken from patent US20240352102A1.

Several values for one entry are separate records, joined by “and”; a condition that tells them apart may be missing. Identical values can stand only once. Like-named read-outs stand apart in the source and are kept apart here.

As usually defined, the Kd is the concentration at which binding is half-saturated. A low value points to a tighter complex.

Test [1] has as its target T1, Peptide_060.
T1 sequence (peptide): LKHQPGGGKVQIINK
As to the kind of experiment: peptide microarray.

Test [2] concerns the target T1, Peptide_060. As to the kind of experiment: peptide microarray. This is another data set of the same source.
The target in test [3] is biotinylated a/B tubulin dimers. As to the kind of experiment: SPR, biotinylated tubulin dimers as probe on a streptavidin chip, tau in solution. For orientation: Surface plasmon resonance follows binding to a sensor surface in real time, without labels.
The target in test [4] is T2, Peptide_061.
T2 sequence (peptide): PGGGKVQIINKKLDL
As to the kind of experiment: peptide microarray.

For test [5], the target named is T1, Peptide_060. As to the kind of experiment: peptide microarray. The source holds these as a separate data set.
For a further test, the target named is T3, Peptide_051.
T3 sequence (peptide): RTPPKSPSSAKSRLQ
As to the kind of experiment: peptide microarray.

The target in test [6] is T2, Peptide_061. As to the kind of experiment: peptide microarray. The source holds these as a separate data set.

Consider TNT2 (antibody), for which, in the test with Peptide_060 [1], the fluorescence intensity is 771 and 1024. Still for that read-out and setting: the value for TNT1 (antibody) was 925 and 797.

Consider ALZ50 (antibody), for which the fluorescence intensity with Peptide_060 [1] is 3070; in the test with Peptide_060 [2] it was 2600. For MC1 (antibody), the fluorescence intensity with Peptide_060 [2] was 770 and 1100. In turn, “Recombinant human tau isoform 1N4R (from UniProt P10636 1-412)” returned a Kd in test [3] of 0.0398 µM. As to T46 (antibody), the fluorescence intensity is 1650 and 844 with Peptide_060 [2]; 3020 with Peptide_061 [4].

As for TOC1 (antibody), in the test with Peptide_060 [2], the fluorescence intensity is 1580 and 1790. For the substance T14 (antibody), the fluorescence intensity with Peptide_060 [5] came out at 840; with Peptide_060 [2], 1010.

With RD4 (antibody), the fluorescence intensity was found to be 163 with Peptide_051; 738 with Peptide_060 [5]; 21000 in the test with Peptide_061 [6]; 722 with Peptide_060 [2]; 10700 with Peptide_061 [4].

For the substance tau1 (antibody), the fluorescence intensity with Peptide_060 [2] is 3040 and 1780.
